Results on 1 substance are retold here after publication PMC3998876.

In this assay the target is biotinylated mouse Izumo1Cd4d3+4 (entire ectodomain, bait form) (mouse) (UniProt Q9D9J7). Briefly: SPR. For orientation: SPR reads the build-up and loss of mass on a sensor chip optically.
Sequence of UniProt Q9D9J7 (Q9D9J7 22-319): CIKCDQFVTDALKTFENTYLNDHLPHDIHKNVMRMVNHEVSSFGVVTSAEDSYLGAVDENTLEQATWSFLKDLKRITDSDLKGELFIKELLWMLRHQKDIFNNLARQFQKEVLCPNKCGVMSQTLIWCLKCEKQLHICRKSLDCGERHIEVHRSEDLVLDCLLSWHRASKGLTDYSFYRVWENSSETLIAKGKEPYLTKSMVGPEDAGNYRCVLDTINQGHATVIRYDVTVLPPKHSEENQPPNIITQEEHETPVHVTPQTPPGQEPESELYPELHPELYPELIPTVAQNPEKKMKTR

The Kd is a measure of binding affinity in units of concentration. Turning to “mouse JunoCd4d3+4-6His (purified soluble Juno ectodomain) (from UniProt Q9EQF4 20-222) (domain or fragment)”, the Kd was determined as 12 µM.
